From patent US20230194525A1, “PEPTIDE BASED PROBES FOR THE DETECTION OF SARS-COV-2” (priority 2021, published 2023)
The star is where a group is joined. FITC = O=C1OC2(c3ccc(O)cc3Oc3cc(O)ccc32)c2ccc(NC(=S)*)cc21; DABSYL = CN(C)c1ccc(/N=N/c2ccc(S(=O)(=O)*)cc2)cc1

B1: {Lys(DABSYL)}QELAAIEWELAANERELAAIEGCFNKTFLDKFNHEAEDLFYQSSLARIAALKYKNAALKKKIA{LYS(FITC)} (peptide)
chain: K(DABSYL)QELAAIEWELAANERELAAIEGCFNKTFLDKFNHEAEDLFYQSSLARIAALKYKNAALKKKIAK(FITC)
B2: {Lys(DABSYL)}QELAAIEWELAANERELAAIEGCFNKTFLDKFNHEAEDLFYQSSLARIAALKYKNAALK{LYS(FITC)} (peptide)
chain: K(DABSYL)QELAAIEWELAANERELAAIEGCFNKTFLDKFNHEAEDLFYQSSLARIAALKYKNAALKK(FITC)
B3: {Lys(DABSYL)}QELAAIEWELAANERELAAIEGCFNKTFLDKFNHEAEDLFYQSSLARIAALKYKNAALKKKIAALKQ{LYS(FITC)} (peptide)
chain: K(DABSYL)QELAAIEWELAANERELAAIEGCFNKTFLDKFNHEAEDLFYQSSLARIAALKYKNAALKKKIAALKQK(FITC)

Target: L subunits (L1, L2, L3)
Test: Titration of R units against L subunits, fluorescence intensity after 2 hours
Format: binding
Settings: R 400 nM to 100 pM against 50 nM L in 1×PBS, pH 7.4, 20-25° C., only rank order given
Protocol: Residual fluorescence can be due to remaining unreacted L subunits.
In FIG. 4B, R units (400 nM to 100 pM in 1×PBS, pH 7.4) are titrated against 50 nM of L subunits in 1×PBS, pH 7.4 at 20-25° C. and the fluorescence intensities measured after 2 hours. […] All the measurements were performed in triplicates (n=3) and the error bar represents the standard deviation of the data. Statistical analysis was performed using Unpaired t test in GraphPad software and the calculated P is represented as follows: **P<0.01.

Row | Molecule | affinity of R subunits toward L subunits (Kd values), preferential order
1 | B1 | RL3>RL1>RL2
2 | B2 | RL3>RL1>RL2
3 | B3 | RL3>RL1>RL2
